What was measured:
[1] = target: C1r complement protein (human)
[2] = target: C1s complement protein (human)
[3] = target: C3 complement protein (human)

For “complement evasion factor (CEF), recombinant Spy0136 (from UniProt Q9A1R6 28-221) (natural protein)”, the Wieslab complement assay, classical pathway activity (C5b-9 formation) of serum pre-incubated with 2 µM rCEF [1] was under 10 % activity, the Wieslab complement assay, classical pathway activity (C5b-9 formation) of serum pre-incubated with 2 µM rCEF [2] was under 10 % activity and the C3b deposition on S. pyogenes opsonised with human serum with 0.5 µM rCEF, flow cytometry [3] was 30 % decrease.

From paper PMC8803112
